Source: patent US9114144B2, “Kallikrein-inhibitor therapies” (Dyax Corp., priority 2002, dated 2015)
Positions of bridges follow the written chain, without caps; N, C: chain ends. No end group written: not given here.

What was measured:
kallikrein = test: Kallikrein inhibitory activity in plasma and CSF of non-ischemic mice after iv treatment; format: in vivo
Protocol: […] analysis was performed to determine whether DX-88 was able to cross the blood-brain barrier. Non-ischemic mice were treated iv with saline or DX-88 (10 μg/mouse or 30 μg/mouse) and plasma was drawn 30 or 60 min after administration. Thirty minutes after DX-88 treatment, plasma kallikrein inhibitory activity was 2 and 4 times higher in mice treated with […], respectively.
The same dose of DX-88 was given at the beginning of ischemic period. Twenty four hours after ischemia, neurological deficits and infarct size were evaluated.

human plasma kallikrein = human plasma kallikrein (Homo sapiens, UniProt P03952); test: Kallikrein inhibition assay, Ki,app; format: biochemical; conditions: fold higher than aprotinin
Sequence of human plasma kallikrein (P03952 20-390 partner limits assumed): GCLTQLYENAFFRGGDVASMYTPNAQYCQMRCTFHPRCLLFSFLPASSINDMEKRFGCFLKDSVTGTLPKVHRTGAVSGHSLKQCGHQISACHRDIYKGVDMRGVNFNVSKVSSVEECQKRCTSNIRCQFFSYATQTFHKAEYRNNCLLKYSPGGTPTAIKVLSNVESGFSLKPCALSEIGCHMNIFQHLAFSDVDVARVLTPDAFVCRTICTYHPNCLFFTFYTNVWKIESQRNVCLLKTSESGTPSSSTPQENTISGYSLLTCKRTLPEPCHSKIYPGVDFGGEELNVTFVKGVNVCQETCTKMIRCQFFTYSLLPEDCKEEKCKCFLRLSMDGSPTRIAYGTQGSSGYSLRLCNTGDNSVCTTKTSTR
Sequence of human plasma kallikrein (P03952 391-638 limits assumed): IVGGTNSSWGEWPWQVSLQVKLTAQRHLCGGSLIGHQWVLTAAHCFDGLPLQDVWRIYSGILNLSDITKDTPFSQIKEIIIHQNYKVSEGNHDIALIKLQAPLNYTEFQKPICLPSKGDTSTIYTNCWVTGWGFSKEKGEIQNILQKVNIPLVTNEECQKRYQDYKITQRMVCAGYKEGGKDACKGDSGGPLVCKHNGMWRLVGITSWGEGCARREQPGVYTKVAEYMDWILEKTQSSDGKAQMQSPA
Protocol: The potency assay of KI polypeptides, such as PEP-1, described herein was a kinetic test, which measured fluorescence generation following the kallikrein-mediated cleavage of a substrate, […] amino methyl coumarin. A known amount of kallikrein was incubated with buffer, with a serially diluted KI polypeptide reference standard, or serially diluted KI polypeptide test samples. Each sample was run in triplicate. The substrate solution was added, and the plate read immediately using an excitation wavelength of 360 nm and an emission wavelength of 460 nm. At least two each of the reference standard and sample curves were required to have an R-squared value of ≧0.95 to be considered valid.

With “EAMHSFCAFKADDGPCRAAHPRWFFNIFTRQCEEFIYGGCEGNQNRFESLEECKKMCTRD (disulfide 7-57, 16-40, 32-53) [PEP-1]” the “inhibitory activity in cerebral spinal fluid (CSF)” value (kallikrein; 30 μg iv, CSF drawn 30 or 60 min after administration) was “marked inhibitory activity”, the “inhibitory activity in CSF” value (kallikrein; 30 μg/mouse iv, thirty minutes after treatment) was “marked inhibitory activity” and the “crossing of the blood-brain barrier” value (kallikrein; intact blood-brain barrier, active form) was “can cross rapidly the intact blood-brain barrier”. The “affinity (Ki) for kallikrein relative to aprotinin” value (human plasma kallikrein) was 1000 times and the “affinity (Ki) for kallikrein relative to aprotinin” value (human plasma kallikrein; listed as DX-88) was “at least 1000 times”.
